The values that follow come from publication doi:10.1101/2024.07.09.602679 (bioRxiv, 2024).

Sequences and labels used below:
B1: SmD1/D2 subcomplex, HT-tag removed (complex, S. cerevisiae)
chain 1: MKLVNFLKKLRNEQVTIELKNGTTVWGTLQSVSPQMNAILTDVKLTLPQPRLNKLNSNGIAMASLYLTGGQQPTASDNIASLQYINIRGNTIRQIILPDSLNLDSLLVD
chain 2: MSSQIIDRPKHELSRAELEELEEFEFKHGPMSLINDAMVTRTPVIISLRNNHKIIARVKAFDRHCNMVLENVKELWTEKKGKNVINRERFISKLFLRGDSVIVVLKTPVE
B2: full-length Brr1, HT-tag removed (natural protein, S. cerevisiae, UniProt Q99177 1-341, looked up)
chain: MKRGESQAPDAIFGQSRAFALSDSSVNPDVIEYLKSVRQEALRTNAISIKNHMNLQKRTRHKSSMYDDEDEGALKRHAISPSLIRLQRNVEIWVRWFNSVKATVLTNAYEFTGYEDETLDLLLLFLKNYLEDMPSKCTTVEKIISVLNQHSFPEKAEEKEENLQIDEEWAKNILVRLEKTKIDSVEDVKKVITEGDKHELVGYNQWFQYLINNEPQHTTFHEKITSKQLWVLIKYMSNTWIKEIHKKGRHYRRLQDWLFYILVHTPERVTAEYTSILRDLGKKCLELIQKKPVEAHENKITLPKEMAELNVEIPAAVENMTITELTVSVIAVNYGQKDLIE
B3: full-length Brr1 with N-terminal His6-TEV tag (natural protein, S. cerevisiae, UniProt Q99177 1-341, looked up)
chain: B2 chain
B4: SmD3/B subcomplex, HT-tag removed (complex, S. cerevisiae)
chain 1: MSKIQVAHSSRLANLIDYKLRVLTQDGRVYIGQLMAFDKHMNLVLNECIEERVPKTQLDKLRPRKDSKDGTTLNIKVEKRVLGLTILRGEQILSTVVEDKPLLSK
chain 2: MTMNGIPVKLLNEAQGHIVSLELTTGATYRGKLVESEDSMNVQLRDVIATEPQGAVTHMDQIFVRGSQIKFIVVPDLLKNAPLFKKNS
B5: SmF/E/G subcomplex, HT-tag removed (complex, S. cerevisiae)
chain 1: MSESSDISAMQPVNPKPFLKGLVNHRVGVKLKFNSTEYRGTLVSTDNYFNLQLNEAEEFVAGVSHGTLGEIFIRCNNVLYIRELPN
chain 2: MSNKVKTKAMVPPINCIFNFLQQQTPVTIWLFEQIGIRIKGKIVGFDEFMNVVIDEAVEIPVNSADGKEDVEKGTPLGKILLKGDNITLITSAD
chain 3: MVSTPELKKYMDKKILLNINGSRKVAGILRGYDIFLNVVLDDAMEINGEDPANNHQLGLQTVIRGNSIISLEALDAI
B6: Lot5 (residues 1-227) with N-terminal His6-TEV tag (domain or fragment, S. cerevisiae, UniProt P34234 1-227, looked up)
chain: MMKKKPKCQIARTKPSVENVIPYNQFKKTQPRFNGNFSALNNEEYIILFGGGRDLILGSLTPCSSSHLSNQANPQDTSEYGTDLFILNSCIIIWFNGLGYGLEIPYSSVLYHASRRLPDGREGLQLEILLTLERDEVLDMLYQSLAPQACEFDGEEAHAFTVRSVELTIRPKYSIYDRHYNNEIETLFTFENFGVNRGDDLVNNCNEALAVCMDLHGEDVQDQDQEQ

Assay [1] deals with T1, full-length Lot5 with N-terminal His6-TEV tag (S. cerevisiae, UniProt P34234 1-306).
T1 sequence (looked up): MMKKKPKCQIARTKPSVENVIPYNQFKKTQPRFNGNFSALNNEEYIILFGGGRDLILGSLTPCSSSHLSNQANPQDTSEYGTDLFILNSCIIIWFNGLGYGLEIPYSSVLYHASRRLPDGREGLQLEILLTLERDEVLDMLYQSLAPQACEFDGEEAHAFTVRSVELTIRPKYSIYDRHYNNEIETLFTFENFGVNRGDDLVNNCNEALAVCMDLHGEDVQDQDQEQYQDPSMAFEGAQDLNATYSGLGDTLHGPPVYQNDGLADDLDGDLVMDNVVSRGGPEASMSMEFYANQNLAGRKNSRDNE
In words: pull-down.

Assay [2] addresses B6. The experiment in a line: pull-down.
The target of assay [3] is T2, D1/D2/F/E/G pentamer (5Sm) (S. cerevisiae, UniProt Q02260 1-109; Q06217 1-110; P54999 1-86; Q12330 1-94; P40204 1-77).
T2 sequence (looked up) 1: B1 chain 1
T2 sequence (looked up) 2: B1 chain 2
T2 sequence (looked up) 3: B5 chain 1
T2 sequence (looked up) 4: B5 chain 2
T2 sequence (looked up) 5: B5 chain 3
The experiment in a line: SEC.

In assay [4] the target is T2, D1/D2/F/E/G pentamer (5Sm). The experiment in a line: pull-down.
Assay [5] concerns the target B2. The experiment in a line: SEC. (In gel filtration, larger molecules generally elute earlier.)
The target of assay [6] is T3, Brr1Δ(122-197) with N-terminal His6-TEV tag (S. cerevisiae, UniProt Q99177 1-341, Δ(122-197)).
T3 sequence (looked up): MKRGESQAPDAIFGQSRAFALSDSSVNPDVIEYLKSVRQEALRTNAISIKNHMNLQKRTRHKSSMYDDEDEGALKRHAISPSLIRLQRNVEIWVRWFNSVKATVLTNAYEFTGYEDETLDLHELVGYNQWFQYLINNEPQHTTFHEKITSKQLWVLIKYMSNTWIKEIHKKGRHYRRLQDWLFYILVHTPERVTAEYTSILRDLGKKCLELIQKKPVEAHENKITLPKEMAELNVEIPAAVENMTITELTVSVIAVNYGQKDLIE
In words: pull-down.

The target in assay [7] is B3. The experiment in a line: pull-down.
Assay [8] deals with T4, Brr1/5Sm heterohexamer (S. cerevisiae, UniProt Q99177 1-341; Q02260 1-109; Q06217 1-110; P54999 1-86; Q12330 1-94; P40204 1-77).
T4 sequence (looked up) 1: B2 chain
T4 sequence (looked up) 2: B1 chain 1
T4 sequence (looked up) 3: B1 chain 2
T4 sequence (looked up) 4: B5 chain 1
T4 sequence (looked up) 5: B5 chain 2
T4 sequence (looked up) 6: B5 chain 3
In words: SEC.

On to B1, for which the binding result in assay [1] and in assay [2] was “binds” throughout.

For the molecule B2, the binding result in assay [3] is given as “binds”.

For B3, the binding result in assay [4] is given as “binds”.

B4: the binding result in assay [1] and in assay [2] was “binds” throughout.

On to B5, for which the binding result in assay [5], in assay [6] and in assay [7] was “binds” each time.

Take B6: the binding result in assay [3] and in assay [8] was “binds” each time.
